Test system: MS2 coat protein
Assay: apparent KD of MS2 coat protein; designed switch direction (-1 OFF switch, 1 ON switch): -1; higher = weaker reporter binding
How it was run: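 Stalled E. coli RNA polymerase transcribed designed RNA switches on Illumina chips, which were then titrated with SNAP-549-labelled MS2 coat protein, doubling from 0.7 or 1.5 nM to 3 µM. Steps lasted from 0.8–1.5 h at the lowest concentration to 10–20 min at the highest. The apparent KD is each design's median over clusters of curve-fitted normalised fluorescence.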

[1] = input ligand: microRNA oligo, concentration not stated
[2] = Eterna round: R95, input ligand: microRNA oligo, concentration not stated
[3] = Eterna round: R95, input ligand: FMN 200 uM
[4] = Eterna round: R95, input ligand: none

| Sequence | apparent KD of MS2 coat protein (input ligand: FMN 200 uM) [µM] | apparent KD of MS2 coat protein [1] [µM] | apparent KD of MS2 coat protein (input ligand: none) [µM] | apparent KD of MS2 coat protein [2] [µM] | apparent KD of MS2 coat protein [3] [µM] | apparent KD of MS2 coat protein [4] [µM] |
| --- | --- | --- | --- | --- | --- | --- |
| UAUGGGUCUACAGGAUAUUCCAGUAGAUAGAAGGGAGAAGGGUGGGCCUAUACUUGAGGAUCACCCAAGUGAAAAGGGUCAUCC [Mutated MS2 EX1.13] (Eterna round: R96, puzzle: Exclusion NG 1) | 0.0279 | 0.0248 | 0.0366 | – | – | – |
| UAUUAAUGCAAGGAUAUGCUUUUAAUUUUUUUUGCAGAAGGUGCAACAUGAGGAUCACCCAUGUUUCAGGGUAU [JR_E6_Sub031] (puzzle: Exclusion 6) | – | – | – | 0.0351 | – | – |
| UAUUAGCAAGCGAAAUCCCACAUGAGGAUCACCCAUGUAAAUAAAAGCUCCAGAAUUACUGGAGCAGCUCGUCUUAU [Winner reversed engineered 18] (Eterna round: R97, puzzle: Sensor, turn-off variant 1) | 0.0298 | – | 0.0245 | – | – | – |
| UAUUAGCAAGCGAGAUCCCACAUGAGGAUCACCCAUGUAGCAUCCAGAAUUACUGGGUGCAAAAGCUCGUCUUAUUA [Winner reversed engineered 4] (Eterna round: R97, puzzle: Sensor, turn-off variant 1) | 0.0254 | – | 0.0261 | – | – | – |
| UAUUAGCAAGUAAGAUCCCACAUGAGGAUCACCCAUGUGCUCGUCUUAUAAGGUACUGUGACGAAAGUCACGGUACC [Sensor 3, v1 - 88] (Eterna round: R96, puzzle: Sensor v3, turn-off variant 1) | 0.0167 | 0.313 | 0.0181 | – | – | – |
| UAUUAGCAAGUAAGAUCCCACAUGAGGAUCACCCAUGUGCUCGUCUUAUAAGGUACUGUGACGAAAGUCACGGUACC [Sensor 3, v1 - 88] (puzzle: Sensor v3, turn-off variant 1) | – | – | – | 1.04 | 0.0126 | 0.0165 |
| UAUUAGCAAGUAAGAUCCCACAUGAGGAUCACCCAUGUGCUCGUCUUAUAAGGUACUGUGACGAAAGUCACGGUACC [Sensor 3, v1 - 95 v1] (Eterna round: R97, puzzle: Sensor, turn-off variant 1) | 0.0183 | – | 0.0192 | – | – | – |
| UAUUAGCAAGUGAGAUCCCACAUGAGGAUCACCCAUGUGCUCGUCUUAUAAGGUACUGUGACGAGAGUCACGGUACC [Mat - Sensor, turn-off var - Eli Mod - D2] (Eterna round: R97, puzzle: Sensor, turn-off variant 1) | 0.0461 | – | 0.0447 | – | – | – |
| UAUUAGCAAGUGAGGUCCCACAUGAGGAUCACCCAUGUGCUCGUCUUAUAAGGUACUGUGACGAAAGUCACGGUACC [Sensor 3, v1 - 95 v4] (Eterna round: R97, puzzle: Sensor, turn-off variant 1) | 0.0487 | – | 0.0408 | – | – | – |
| UAUUCUAGAUAGGAUAUACUUUUUUUUUUUUUCGUAGAAGGAUCUACAUGAGGAUCACCCAUGUUAUCAGCAGU [JR_E6_Sub011] (puzzle: Exclusion 6) | – | – | – | 0.0302 | 0.0275 | 0.0224 |
| UAUUGCAAGCGAAGAUCCCACAUGAGGAUCACCCAUGUGCUCGUCUUAUAAGGUACUGUGACGAUAGUCACGGUACC [Mat - Sensor, turn-off var - Eli Mod - D76] (Eterna round: R97, puzzle: Sensor, turn-off variant 1) | 0.034 | – | 0.0306 | – | – | – |
| UAUUGCAAGUGAGGAUAUGACAUGAGGAUCACCCAUGUAAAGGGAGUUGGCUAUAUAGCAAGAUUUCAGAAGGCACUACUGUAU [JR_ExcNG2_Sub006] (Eterna round: R96, puzzle: Exclusion NG 2) | 0.133 | 0.0326 | 0.0563 | – | – | – |
| UAUUUACAUGAGGAUCACCCAUGUCAGGAUAUGCGUCUAUCGUCGAAAGACGAUAGCCGCAGAAGGGACAAUAU [LRO-Excl01-21 mod derived from EliFisker 4.24] (Eterna round: R97, puzzle: Exclusion 1) | 0.0873 | – | 0.0581 | – | – | – |
| UAUUUACAUGAGGAUCACCCAUGUUAGGAUAUGUUUCUAUCGUCGAAAGAUGAUAUUUGCAGAAGGGACAAUAU [LRO-Excl01-28 mod derived from EliFisker 4.24] (Eterna round: R97, puzzle: Exclusion 1) | 0.024 | – | 0.0243 | – | – | – |
| UAUUUAGCAAGCAGAUCCCACAUGAGGAUCACCCAUGUUCUCUGAACGUACAGAAUUACUGUACGAGCUCGUCUUAU [Winner reversed engineered 30] (Eterna round: R97, puzzle: Sensor, turn-off variant 1) | 0.352 | – | 0.352 | – | – | – |
| UCAAGCUUUAAGCGUGUGAACAUGAGGAUCACCCAUGUAUUUUAGGUAAUAAGUUCAAUUAUGUAUUCUCGUCUUAU [JR_SWV3TOV1_Sub095] (Eterna round: R96, puzzle: Sensor v3, turn-off variant 1) | 0.0615 | 0.0454 | 0.0654 | – | – | – |
| UCAAGCUUUAAGCGUGUGAACAUGAGGAUCACCCAUGUAUUUUAGGUAAUAAGUUCAAUUAUGUAUUCUCGUCUUAU [JR_SWV3TOV1_Sub095] (puzzle: Sensor v3, turn-off variant 1) | – | – | – | 0.0374 | 0.0424 | 0.0456 |
| UCAAGUAUGUAGGAUAUGAUGUGAUUGUACAUAUCAGAAGGACGUACAUGAGGAUCACCCAUGUAACUUGCAUG [Exclusion 6 - B - 12:b] (puzzle: Exclusion 6) | – | – | – | 0.144 | 0.0431 | 0.144 |
| UCACCGCAAGGAUAUACUUGCGGUGAUGUUCGAAAUCUUCUACUUGAGGAUCACCCAAGUAGAAGGUGCGGUGA [jl-ex2.4.66 ViennaUCT mod] (Eterna round: R97, puzzle: Exclusion 2) | 0.0143 | – | 0.0128 | – | – | – |
| UCACGGGACUAAGGAUAUACAUGAACUAUUAUUGUAGAAGGUAGAAUGUUAGCUUAUACACUAAACAUGAGGAUCACCCAUGUA [JR_ExcNG1_Sub095] (Eterna round: R96, puzzle: Exclusion NG 1) | – | 0.0269 | – | – | – | – |
| UCACGGGACUGAGGAUAUACAUCAACAAUGGUUGUAGAAGGCAGAAGGUUGAAUCAUAUACUAAACAUGAGGAUCACCCAUGUU [JR_ExcNG1_Sub031] (Eterna round: R96, puzzle: Exclusion NG 1) | 0.0164 | 0.0166 | 0.0241 | – | – | – |
| UCACGGGACUGAGGAUAUACAUGAACCAUUUUUGUAGAAGGCAGAAUGUUUGAUCAUACACUAAACAUGAGGAUCACCCAUGUU [JR_ExcNG1_Sub026] (Eterna round: R96, puzzle: Exclusion NG 1) | 0.016 | 0.0163 | 0.0201 | – | – | – |
| UCACGGGAUUGAGGAUAUAUAUAAAUUUAUACAAUAGAAGGCAAAUUUUUAGUUUUUUCACUUUACAUGAGGAUCACCCAUGUU [JR_ExcBG1_Sub083] (Eterna round: R96, puzzle: Exclusion NG 1) | – | 0.0201 | – | – | – | – |
| UCACUACCGCAAGGAUAUGUUGUCUGACACGCUGCGUGACAUGAGGAUCACCCAUGUGCUAGUUCGCAGAAGGUGCGGAAUGUG [Eternabot solution 34] (Eterna round: R96, puzzle: Exclusion NG 2) | 0.0632 | 0.00998 | 0.0171 | – | – | – |
| UCAGGUCGGUAGGAUAUCGACGGGAAAAUCCCACGAGAAGGACUGACAUGAGGAUCACCCAUGUGAGCGUAACC [EX6 B.11] (Eterna round: R97, puzzle: Exclusion 6) | 0.149 | – | 0.202 | – | – | – |
| UCAUACGGUGAGGAUAUCUCCACUAAAGUGUGAAGAGAAGGCGCUACAUGAGGAUCACCCAUGUUUAUGGGCAG [Ex-6 Malc#14] (puzzle: Exclusion 6) | – | – | – | 0.0565 | 0.027 | 0.116 |
| UCAUGGGAGGCAGCUGCCCACAUGAGGAUCACCCAUGUUUUAGACAAACGGGUACAAGCUUUUAAUGCUCUUCUUUG [Eternabot (L2) Solution 49] (Eterna round: R97, puzzle: Sensor, turn-off variant 1) | 0.587 | – | 0.248 | – | – | – |
| UCAUGUUAGCAGGAUAUGCUAUUUAUUUUUUAUGCAGAAGGGCUUACAUGAGGAUCACCCAUGUAUUAAGUUUU [JR_E6_Sub074] (puzzle: Exclusion 6) | – | – | – | 0.115 | – | – |
| UCAUGUUAGCAGGAUAUGCUAUUUAUUUUUUAUGCAGAAGGGCUUACAUGAGGAUCACCCAUGUGUUAGGUUUU [JR_E6_Sub073] (Eterna round: R96, puzzle: Exclusion 6) | 0.0348 | 0.0415 | 0.0706 | – | – | – |
| UCAUGUUAGCAGGAUAUGCUAUUUAUUUUUUAUGCAGAAGGGCUUACAUGAGGAUCACCCAUGUGUUAGGUUUU [JR_E6_Sub073] (puzzle: Exclusion 6) | – | – | – | 0.0297 | – | – |

Source: the supplement of paper PMC9170038
